The values that follow come from IntAct's records for PubMed 17548836.

B1: Bone morphogenetic protein 1 (Homo sapiens), P13497 (parent)
chain: MPGVARLPLLLGLLLLPRPGRPLDLADYTYDLAEEDDSEPLNYKDPCKAAAFLGDIALDEEDLRAFQVQQAVDLRRHTARKSSIKAAVPGNTSTPSCQSTNGQPQRGACGRWRGRSRSRRAATSRPERVWPDGVIPFVIGGNFTGSQRAVFRQAMRHWEKHTCVTFLERTDEDSYIVFTYRPCGCCSYVGRRGGGPQAISIGKNCDKFGIVVHELGHVVGFWHEHTRPDRDRHVSIVRENIQPGQEYNFLKMEPQEVESLGETYDFDSIMHYARNTFSRGIFLDTIVPKYEVNGVKPPIGQRTRLSKGDIAQARKLYKCPACGETLQDSTGNFSSPEYPNGYSAHMHCVWRISVTPGEKIILNFTSLDLYRSRLCWYDYVEVRDGFWRKAPLRGRFCGSKLPEPIVSTDSRLWVEFRSSSNWVGKGFFAVYEAICGGDVKKDYGHIQSPNYPDDYRPSKVCIWRIQVSEGFHVGLTFQSFEIERHDSCAYDYLEVRDGHSESSTLIGRYCGYEKPDDIKSTSSRLWLKFVSDGSINKAGFAVNFFKEVDECSRPNRGGCEQRCLNTLGSYKCSCDPGYELAPDKRRCEAACGGFLTKLNGSITSPGWPKEYPPNKNCIWQLVAPTQYRISLQFDFFETEGNDVCKYDFVEVRSGLTADSKLHGKFCGSEKPEVITSQYNNMRVEFKSDNTVSKKGFKAHFFSDKDECSKDNGGCQQDCVNTFGSYECQCRSGFVLHDNKHDCKEAGCDHKVTSTSGTITSPNWPDKYPSKKECTWAISSTPGHRVKLTFMEMDIESQPECAYDHLEVFDGRDAKAPVLGRFCGSKKPEPVLATGSRMFLRFYSDNSVQRKGFQASHATECGGQVRADVKTKDLYSHAQFGDNNYPGGVDCEWVIVAEEGYGVELVFQTFEVEEETDCGYDYMELFDGYDSTAPRLGRYCGSGPPEEVYSAGDSVLVKFHSDDTITKKGFHLRYTSTKFQDTLHSRK
B2: Bone morphogenetic protein 1 (Homo sapiens), P13497 (parent)
chain: B1 chain
partner: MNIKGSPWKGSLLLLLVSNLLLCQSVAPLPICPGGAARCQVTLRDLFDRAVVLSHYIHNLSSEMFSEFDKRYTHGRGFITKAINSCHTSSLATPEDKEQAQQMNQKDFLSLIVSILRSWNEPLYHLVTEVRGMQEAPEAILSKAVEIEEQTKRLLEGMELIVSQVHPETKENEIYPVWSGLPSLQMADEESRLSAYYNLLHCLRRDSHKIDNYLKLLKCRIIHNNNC

Variants of B1 are the subject of one assay. The following applies: with soma_human GH1, P01241.
soma_human GH1, P01241, sequence (P01241 whole entry): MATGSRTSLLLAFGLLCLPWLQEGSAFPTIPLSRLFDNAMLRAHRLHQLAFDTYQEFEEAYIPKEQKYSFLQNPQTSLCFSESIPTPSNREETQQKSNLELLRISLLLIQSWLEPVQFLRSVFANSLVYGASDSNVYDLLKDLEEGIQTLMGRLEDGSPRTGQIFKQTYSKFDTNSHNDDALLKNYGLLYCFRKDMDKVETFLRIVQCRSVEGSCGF
Turning to E214A, the “effect of a mutation on the interaction” value was “disrupting interaction strength”.

A further assay covers variants of B2. The following applies: with prl_human PRL.
For E214A, the “effect of a mutation on the interaction” value is given as “disrupting interaction strength”.
